Reference: the nanobody polyreactivity screen of Harvey et al. (2022)

test: yeast display, Sf9 membrane polyspecificity reagent, FACS + sequencing; frameworks hold sequencing errors
Outline: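 Nanobodies from a synthetic yeast display library (Saccharomyces cerevisiae BJ5465), induced 36–48 hours with galactose, were stained 1 hour at 4 °C with 10% biotinylated, detergent-solubilized Sf9 membrane reagent, enriched on streptavidin microbeads, then FACS-sorted. Anti-HA (expression) and streptavidin (reagent binding) fluorescence set low and high (top ~1%) gates. Polyreactivity labels come from the gate of origin. Genes were colony-PCR amplified, MiSeq 2 × 250 sequenced and filtered by CDR length.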

Sequence	polyreactivity (PSR sort gate)
QVQLVESGGGLVQSGRSLRLICAASGSTSTQYAMGWYRQAPGKERELVAGITQSGGSTYYADSVKGRFTISRDNAKNTVYLQMNSLKPEDTAVYYCAAPPGYTGRYEYYYWGQGTQVTVSS	high polyreactivity
QVQLVESGGGLVQSRGSLRLSWAASGSTFTYNTMGWYRQAPGKERELVAAISSGGSTYYADSVKGRFTISRDNAKNTVFLQMNSLKPEDTAVYYCAATAQKDSRYGSRYYYWGQGTQVTVSS	high polyreactivity
QVQLVESGGGLVQTGGSLRLSCAASGRIFRSYAMGWNRQAPGKERELVAAISGSGGSTYYADSVKGRFTISRDNAKNTVSLQMNSLKPEDTAVYYCTAGKVHPFSTRFYYWGQGTQVTVSS	low polyreactivity
QVQLVESGGGLVQTGGSLRLSCAASGRILYTNAMGWYRQAPGKERELVAAISSGGRTTYADSVKGRFTISRDNAKNTVYLQMNSLKPEDTAVYYCAAGIRIYGTKRSRGYGYWGQGTQVTVSS	high polyreactivity
QVQLVESGGGLVQTGGSLRLSCAASGSTFYPNTMGWYRQAPGKERELVAAITNGGSTNYADSVKGRFTISRDNAKNTVYLQMNSLKPEDTAVYYCAALYYRFLLGWYKYGYWGQGTQVTVSS	high polyreactivity
QVQLVESGGGLVQVGCSLRLICAASGRTFWWYAMGGYRQAPGKERELVAAISRGSTNYADSVKGRFTISRDNAKNTVYLQMNSLKPEDTAVYYCNAVSLYQSHDYDYWGQGSQVTVSS	low polyreactivity
QVQLVESGGGLVQVGGSLRLSCAASGRTFGRYAMGWYRQAPGKERELVAAINSVARTNYADSVKGRFTISRDNAKNTVYLHMNSLKPEDTAVYYCAARYYYSGVTHAKRIAYYYWGQGTQVTVSS	high polyreactivity
QVQLVESGGGLVQVGGSLRLSCAASGRTVWWYAMGWYRQAPGKERELVAAISRGSTNYADSVKGRFTISRDNAKNTVYLQMNSLKPEDTAVYYCNAVSLYQSHDYDYWGQGTQVTVSS	low polyreactivity
QVQLVESGGGLYQAGGSLRLSSAASGRIFPWNTMGWYRQAPGKERELVAGINNGDRTYYADSVKGRFTISRDNAKNTVYLQMNSQKPEDTAVYYCAVDTWYFLFQYGYYQEGDYWGQGTQVTVSS	low polyreactivity
QVQLVESGGGVDQAGGSLRLSGAASGSTFHSYTMGWYRQAPGKERELVAAITRSGGSTYYADSGKGRFTISRETAKNTVYLQMNSQKPEDTAVYYCAVPYCRNSRLVDLAYHFYYWGQGTQVTVSS	high polyreactivity
QVQLVESGGGVGQAGGSLRLSCAASGYTFPDYAMGWYRQAPGKERELFAAIRSGGGTNYADSVKGRFTISRDNAKNTVYLLMNSLQPVDTAVYYSAKEWAGGLYDYWGQGTKVTVSS	low polyreactivity
QVQLVESGGGVVQAGGSLGLSCAASGRLFGYYAMGWYRQAPGKERELGAAINYSGGSTYYADSVKGRFTISRDNAKNTVYLQMNSLKPEDTAVYYCNAVRYTLLYYWGQGTQVTVSS	high polyreactivity
QVQLVESGGGVVQAGGSLRISCAASGRTFGVYAMGWYREAPGKERELVAAINRSGTRTYYADSVKGRFSISRDNPKNTVYLPMNSLKPEDTAVYYCAASWYPGSRNYDYWGQGTQVSVSS	high polyreactivity
QVQLVESGGGVVQAGGSLRLICAASGSTFHSYVMGWYRQAPWKERELVAAITSRGGSTNYADSVKGRFTISRDNAKNTVYLQLNSQKPEDTAVYCCAADGYLGWSYCRYDYWGQGTQVTVSS	low polyreactivity
QVQLVESGGGVVQAGGSLRLSCAACGSTFRSYAMGWYRQAPGTERELVAAISSGGRTYYADSVKGRFTITRDNAKNPVYLPMNSLKPEDTAVYYCAARLYAYRWYGYAFKYEYWGHGTQVTVSS	high polyreactivity
QVQLVESGGGVVQAGGSLRLSCAASGGIFRRNAMGWYRQAPGKERELVAAITRSGASTYDADSVKGRFTISRDNAKYTVYLQMNSLKPEDTAVYYCADAQLSAEYDYWGQGTQVTVTS	low polyreactivity
QVQLVESGGGVVQAGGSLRLSCAASGGTFGKYAMGWYRQAPGNEREFVAAISKSGGSTFYADSVKGRFTISRDNAKNTVYLQMNSLKPEDTAVYYCAVRWYYRGRSLYDYWGQGTQVTVSS	high polyreactivity
QVQLVESGGGVVQAGGSLRLSCAASGRIFGGYAMGWYRQAPGKERELVAAISGSGGRTDYADSVKGRFTISRDNAKNTVYLQMNSLKPDDTAVYYCNKGYVYGHEYWGQGTQVTVSS	high polyreactivity
QVQLVESGGGVVQAGGSLRLSCAASGRIFLTNALGWYRQAPGKVREVVADISRGGSTYADSVKGRFTISRDTAKNTVYLQMTSLKPEDTAVDYCAADEYSPGDSRTRYAYWGQGTQVPVSS	low polyreactivity
QVQLVESGGGVVQAGGSLRLSCAASGRIFRYYTMGWYRQAPGKERELVAAITSSGGSTYYADSVKGRFTISRDNAKNTVYLQMNSLKPEDTAVYYCATRSYVFAWEFNYWGQGSQVTVSS	high polyreactivity
QVQLVESGGGVVQAGGSLRLSCAASGRIFYKYAMGWYRQAPGKAREFVATISSSGGSTYYADSVKGRFTISRDNAKNTAYLQMNSLKPEDTAVYYCAARYGRVTREYWGQGTQVTVSS	high polyreactivity

Sequence	polyreactivity (PSR sort gate)
QVQLVESGGGVVQAGGSLRLSCAASGRTFGSNAMGWYRQAPGKERELVAGITTSGGSTNYADSVKGRFTISRDNAKNTVYLQMNSLKPEETAVYFCAVANYGIGYPHYIFDYWGQGTQVTVSS	low polyreactivity
QVQLVESGGGVVQAGGSLRLSCAASGRTFRSYAMGWYRQAPGKERELVAAISWSGGSTYYADSVKGRFTISRDNAKNTVYLQMNSLKPEDTAVYYCAATVGQRKYQLGYWGQGTQVTVSS	high polyreactivity
QVQLVESGGGVVQAGGSLRLSCAASGSIFAGIAMGWYRQAPGKERELVADITSGDSTYYADSLKGRFTISRDNAKNTVYLQMNSLTPEDTAVYYCNNQLRVPQGAFFWFHGMDYWGQGTQVTVSS	low polyreactivity
QVQLVESGGGVVQAGGSLRLSCAASGSIFTYYAMGWYRQAPGKERELVAAISYGGGSTNYADSVKGRFTISRDNAKYTVYLQMNSLKPEDTAVYYCNRVLGVNYGYWGQGTQVTVSS	high polyreactivity
QVQLVESGGGVVQAGGSLRLSCAASGSNFDRNAMGWYRQAPGKERELVAAISRSGGSTNYADSVKGRFTISRDNAKNTFYLQMNSLKPEVTAVYYCAAVRTHWFGQGWAVYWFEYWGQGTQVTVSS	low polyreactivity
QVQLVESGGGVVQAGGSLRLSCAASGSTFLPYAMGWYRQAPGKERELVAAITWRTGSTYYADSVKGRFTSSRDNAQNTVYLQMNSLKPEDTAVYYCNAKQRGKFDYWGQGTQVTVSS	low polyreactivity
QVQLVESGGGVVQAGGSLRLSCAASGSTFSAYTMGWYRQAPGKERELVAAISRSGVSTYYADSVKGRFTISRDNAKNTVYLQMNSLKPEDTAVYYCAAPYFVSYQGYDYCGQGTQVTVSS	high polyreactivity
QVQLVESGGGVVQAGGSLRLSCAASGSTFYSYAMGWYRQAPGKERELVAAISSGGGRTYYADSVKGRFTISRDNAKNTVYLQMNSLKPEDTAVYYCAASYWYRDYYYWGQGTQVTVSS	high polyreactivity
QVQLVESGGGVVQAGGSLRLSCAASGSTLVVNGLGWYRQAPGKDRELVAAISWSGGTTYYADSVKGRFTISRDNAKNTVDLQMNSLKPEDTAVYYCAADSYTEVDYWGQGTQVTVSS	low polyreactivity
QVQLVESGGGVVQAGGSLRLSGAASGITFSVNAMGWYRPAPGKEREFVAAISSSGGSTYYADSVKGRFTISRDNAKNTVYLQMNSLKPEDTAVYYCAVDYYSYYYEDDYWGQGTQVTVSS	high polyreactivity
QVQLVESGGGVVQAGGSLRLSSAASGIIFKRYAMGWYRQAPGKEREFVAAISRSGVRTYYADSVKGRFTISRDNAKNTVFLQMNSLNPEDTAVYYCAAEFANYRDTGESVYWFYYWGQGTQVTVSS	high polyreactivity
QVQLVESGGGVVQAGGTLRLSCAASGSLFPYNVMGWYRQAPGKERELVAVITGSTGRTYYADSVKGRFTISRDNAKNTVYLQMNSLKPEDTAVYYCAKRSYWAPYDYWGQGTQVTVSS	high polyreactivity
QVQLVESGGGVVQAGRSLRISCAASGSTFRGYAMGWYRQAPGKDRELVATISGSDGTTYYADSVKGRFTISRDYAKNTVYLQMNCLNPEDTAVFYCDAGESFEMYYWGQGSQVTVSS	low polyreactivity
QVQLVESGGGVVQAGRSLRLSCAASGRLFVRNAMGWYRQAPGKDRELVAAITSVGDTYYADSVKGRFTISRDNAKNTVYLQMNSLKPVDTAVYYCAVYLWSGWGYPEYNYWGQGTQVTVSS	low polyreactivity
QVQLVESGGLLVQAGGSLRLRGAASGSTIPRNAMGWYRQAPGKERELVASITSDGGSTYYADSVKGRFTISRDNAQITVYLQMNSLNPEDTAVYYFNAYTRYGLFAYDYWGQGTQVTVSS	high polyreactivity
QVQLVESGGPIVQAGGSLRISCAASGRTYAYKTMGWSRQAPGKERELVAGINSSGGSTYYADSVKGRFTISRDNAKNTVYLQMNSLKPEDTAVYDCAADNSPRPYDSWGQGTQVTVSS	high polyreactivity
QVQLVESGGRLFQAGGSLRLSCAASGRSYRYYAMGGYTKAPGKERELFAAISSGTRTNYADSVKGRFTISRDNAKNTVYFQMNSLKPEDTAVYYCKADGYRGYYGRNKSKYDFWGQGTQVTVSS	high polyreactivity
QVQLVESGGRLLQAGGSLRLSCAASGYTIDPYDMGWYRQAPGKERELVASISWSGGDTYYADSVKGRFSISRDNAKNTVYLQMNRLKPEDPAVYYCAADPGYAANRTEWRDFDYWGQGTQVTVSS	low polyreactivity
QVQLVESGGRLVEAGGSLSLSWAASGRIFPKYPMGWYRQAPGKERELVAAISRRGSSTYYADSVQGRFTISRDNAKNTVYLQMNSLTPEDTAVYYCATDARDGHDYWGQGSQVTVSS	high polyreactivity
QVQLVESGGRLVHAGGSLRISCAASGSILTRNAMGWYRPAPGKERELVAASTKRGGTTYYADSVKGRFTISRDNAKNTVYLQMNSLKQEDNAVYYCAARNGGRFSFEFNYWGQGTQVTVSS	high polyreactivity
